Experiment: yeast display, Sf9 membrane polyspecificity reagent, FACS + sequencing; frameworks hold sequencing errors
In short: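 Synthetic nanobody libraries on Saccharomyces cerevisiae BJ5465 were galactose-induced for 36–48 hours, stained 1 hour at 4 °C with 10% biotinylated, detergent-solubilized Sf9 membrane reagent and enriched on streptavidin microbeads. FACS then separated cells into low and high (top ~1%) gates by anti-HA (expression) and streptavidin (reagent binding) fluorescence. Genes were colony-PCR amplified, MiSeq 2 × 250 sequenced and CDR-length filtered. A clone's polyreactivity label is that of its gate of origin.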

QVQLVESGGGLVQAGGSLRLSCAASGYIFDRYAMGWYRQAPGKERELVAAITNGGRTYYADSVKGRFTISRDNAKNTVYLQMNSLKPEDTAVYYCAAVVYSRGYYWGQGTQVTVSS
polyreactivity (PSR sort gate): high polyreactivity

QVQLVESGGGLVQAGGSLRLSCAASGYIFDSNVMGWYRQAPGKERELVARIRWSGGSTYYADSVKGRFTISRDNAKNTVYLQMNSLKPEDTAVYYCNVVSYYIAGGWYEGDYWGQGTQVTVSS
polyreactivity (PSR sort gate): low polyreactivity

QVQLVESGGGLVQAGGSLRLSCAASGYIFDVNTMGWYRQAPGKERELVAVIRRGGSTTYADSVKGRFTISRDNAKNTVYLQMNSLKPEDTAVYYCNARVTLGRPLFTYLVRYEYWGQGTQVTVSS
polyreactivity (PSR sort gate): high polyreactivity

QVQLVESGGGLVQAGGSLRLSCAASGYIFDYYAMGWYRQAPGKESELVAAISSSGGTTYYADSVKGRFTISRDNAKNTFYLQMNSLKPEDTAVYYCAARKSRWHRGYYYWGQGTQVTVSS
polyreactivity (PSR sort gate): high polyreactivity

QVQLVESGGGLVQAGGSLRLSCAASGYIFEYYAMGWYRQAPGKDRELVAAISWSGGSTYYADSVKGRFTISRDNAKNTVYLQMNSLKPEDTAVYYCAAESYLPYWDSYYRYDYWGQGTQVTVSS
polyreactivity (PSR sort gate): low polyreactivity

QVQLVESGGGLVQAGGSLRLSCAASGYIFFFNAMAWYRQAPGKERELVAAITRRGVSTYYADSVKGRFTISRDNAKNTVYLQMNSLKPEDTAVYYCATEHNHLGYYYWGQGTQVTVSS
polyreactivity (PSR sort gate): low polyreactivity

QVQLVESGGGLVQAGGSLRLSCAASGYIFGGYAMGWNRQAHGKERELVAGISIGVGSTYYADSVKGRFTISRDKAKNTVNLQMNSLKPEDTAVYYCNRDSVGYDYWGQGTQVTVSS
polyreactivity (PSR sort gate): low polyreactivity

QVQLVESGGGLVQAGGSLRLSCAASGYIFGQNHMGWYRQAPGKERELVAAISSDGSTYYADSVKGRFTISRDNAKNTVYLQMNSLKQEDTAVYYCKYYHQRFPYRQVYYWGQGTQVTVSS
polyreactivity (PSR sort gate): low polyreactivity

QVQLVESGGGLVQAGGSLRLSCAASGYIFGQYAMGWYRQAPGKERELVADITRGGDTYYADSVKGRFTISRDNAKNTVYLQMNSLKPEDTAVYYCAADSFYWAWQYDYWGQGTQVTVSS
polyreactivity (PSR sort gate): high polyreactivity

QVQLVESGGGLVQAGGSLRLSCAASGYIFGSYAMGWYRQAPGKERELVASITRVDSTNYADSVKGRFTISRDNAKNTVYLQMNSLKAEDTAVYYCAADITTPAYATYDYWGQGTQVTVSS
polyreactivity (PSR sort gate): low polyreactivity

QVQLVESGGGLVQAGGSLRLSCAASGYIFGSYTMGWYRQAPAKERELVAGISRRGGGTYYADSVKGRFTISRDNAKNTVYLQMNSLKPEDTAVYYCAAEVITIGLYRYGYWGQGTQVTVSS
polyreactivity (PSR sort gate): high polyreactivity

QVQLVESGGGLVQAGGSLRLSCAASGYIFGVYAMGWYRQAPGKERELVAAISYGVGSTYYADSVKVRFTISRDNAKNTVYFQMNSLKPEDTAVYYCAADVFFYVYEAYLLYYWGQGSQVTVSS
polyreactivity (PSR sort gate): low polyreactivity

QVQLVESGGGLVQAGGSLRLSCAASGYIFGWYAMGWYRQAPGKERELVATIDWSGDSTYYADSVKGRFTISRDNAKNTVYLQMNSLKPEDTAVYYCAVGYSYYPSDEFDYWGQGTQVTVSS
polyreactivity (PSR sort gate): low polyreactivity

QVQLVESGGGLVQAGGSLRLSCAASGYIFIGYAMGWYRQAPGKERELVTYADSVKGRFTISRDNAKNTVYFQMNSRKPEDTAVYYCNKVPRRFSGLDENYWGQGTQVTVSS
polyreactivity (PSR sort gate): low polyreactivity

QVQLVESGGGLVQAGGSLRLSCAASGYIFKYNAMGWYIQAPGKERELVAAISGRGGSTYYADSVKGRFTISRDNAKNTVYLQMNSLKPEDTAVYYCNADYQARRYNYWGQGTQVTVSS
polyreactivity (PSR sort gate): high polyreactivity

QVQLVESGGGLVQAGGSLRLSCAASGYIFKYYAMGWYRQAPGKERELVAAISRSGGSTYYADSVKGRFTISRDNAKNTVYLQMNSLNPEDTAVYYCAADSYYYQGYRRYNYDYWGQGTQVTVSS
polyreactivity (PSR sort gate): high polyreactivity

QVQLVESGGGLVQAGGSLRLSCAASGYIFLGNAMGWYRQAPGKERELVAAISRSGGSTYYADSVKGRFTISRDNAQNTVYLQMNSLKPEDTAVYYCNRDRQKIGYTYKYDYWGQGTQVTVSS
polyreactivity (PSR sort gate): high polyreactivity

QVQLVESGGGLVQAGGSLRLSCAASGYIFNLNAMGWYRQAPGKERELVAAITRSGGSTYYADSVKGRFTISRDNAKNTVYLQMNSQKPEDTAVYYCAARGPYYRPWYKYDYWGQGTQVTVSS
polyreactivity (PSR sort gate): high polyreactivity

QVQLVESGGGLVQAGGSLRLSCAASGYIFPGNAMGWYRQAPGKERELVATISGSAGSTSYADSVKGRFTISRDNAKNTVYLQMNSLKPEDTAVYYCNKAYSYSWGDLDYWGQGTQVTVSS
polyreactivity (PSR sort gate): high polyreactivity

QVQLVESGGGLVQAGGSLRLSCAASGYIFPGNAMGWYRQAPGKERELVATITDDTSTNYADSVKGRFTISRDNAKNTVYLQMNSLKPEDTAVYYCAADLYYWYPYLYDYWGQGTQVTVSS
polyreactivity (PSR sort gate): low polyreactivity

QVQLVESGGGLVQAGGSLRLSCAASGYIFPSYAMGWYRQAPGKERELVAAISESGGSTNYSDSVKGRFTISRDYAKNTVYLQLNSLKPEDTAVYYCAAGYYTVPPDMNSWGQGTQVTVSS
polyreactivity (PSR sort gate): low polyreactivity

QVQLVESGGGLVQAGGSLRLSCAASGYIFPTNAMGWYRPATRKERELLAVITSGGSTYYADSVKGRFTISRDNAKNTVYLLMNSLKPDDTAVYYCAARYQGRYGIYRVLYGYWGQGTQVTVSS
polyreactivity (PSR sort gate): high polyreactivity

QVQLVESGGGLVQAGGSLRLSCAASGYIFQWYDMGWYRQAPGKERELVAAISVTTGSTYYADSVKGRFTISRDNAKNTVYLQMNSLKPEDTAVYYCAAVSWYRHDMYYWGQGTQVTVSS
polyreactivity (PSR sort gate): low polyreactivity

QVQLVESGGGLVQAGGSLRLSCAASGYIFQYYPMGWYRQAPGKERELVAAITSGTRTYYADSVKGRFTISRDNAKNTVYLQMNSLKPDDTAGYYCAASPDYSRYWVYAPTRRLGYWGQGTQVTVSS
polyreactivity (PSR sort gate): high polyreactivity

QVQLVESGGGLVQAGGSLRLSCAASGYIFRSNAMGWYRQAPGKERELVAAISGGGRTNYADSVKGRFTISRDNAKNTVYLQMNSLKPEDTAVYYCAAGGYYQRTRGYWGQATQVTVSS
polyreactivity (PSR sort gate): high polyreactivity

QVQLVESGGGLVQAGGSLRLSCAASGYIFSKYALGWYRQAPGKERELVASITGRGSRTYYADSVKGRFTISRDNAKNTVYLQMNSLKAEDTAVYYCAADWYGQKTSNRWYFRPGYVYWGQGTQVTVSS
polyreactivity (PSR sort gate): high polyreactivity

QVQLVESGGGLVQAGGSLRLSCAASGYIFSLYAMGWYRQAPGKERELLADITTSAGSTYYADSVKGRFTISRDNAKNTVYLQMISLKPEDTAVYYCAAAVYGHSYYDYDYWGLGTQVTVSS
polyreactivity (PSR sort gate): low polyreactivity

QVQLVESGGGLVQAGGSLRLSCAASGYIFSLYGMGWYRQAPGKERELVAAITGSGGGTYADSVKGRFTISRDNAQNTVYLQMKSLKPEDTAVYYCAAGGYRRRFWPIYDYWGQGTQVTVSS
polyreactivity (PSR sort gate): low polyreactivity

QVQLVESGGGLVQAGGSLRLSCAASGYIFSRNDRGWYRQAPGKERELVARITGSAGSTYYADSVKGRFTISRDNAKNTVYLQMNSLKPEDTAVYYCARRWYTWRKNKYCRMDYWGQGTQVTVSS
polyreactivity (PSR sort gate): low polyreactivity

QVQLVESGGGLVQAGGSLRLSCAASGYIFSSYAMGWYRQAPGKERELVAAISWTGGTYYADSVKGRFTISRDNAKNTVYLQMNSLNPEDTAVYYCAVRYKRKGSGYRTNAYDYWGQGTQVTVSS
polyreactivity (PSR sort gate): high polyreactivity

QVQLVESGGGLVQAGGSLRLSCAASGYIFSTYDMGWYRQAPGKERELVATISSSGGSTYYADSVKGRFTISRDIAKNTVYLQMNSLKPEDTAVYYCAADLYLYQYRYEYDYWGQGTQVTVSS
polyreactivity (PSR sort gate): high polyreactivity

QVQLVESGGGLVQAGGSLRLSCAASGYIFSTYTMGWYRQAPGKERELVATITVSGGSTYYADSVKGRFTISRDNAKNTVYLQMNSLKPEDTAVYYCAALRYTFAGRFDYWGQGTQVTVSS
polyreactivity (PSR sort gate): high polyreactivity

QVQLVESGGGLVQAGGSLRLSCAASGYIFSYYAMGWYRQAPGKERELVAAITSSGGRTYYADSVKGRFTISRDNAKNTVYLQMNSLKPEDTAVYYCNRDYSSYDTEDYWGQGTQVTVSS
polyreactivity (PSR sort gate): high polyreactivity

QVQLVESGGGLVQAGGSLRLSCAASGYIFTDKVMGWYIQAPGKERELVAAITYSAASTYYADSVKGRFTISRDNAKNTVYLQMNSLKPEDTAVYYCATEYYIGVNYRGDYWGQGTQVTVSS
polyreactivity (PSR sort gate): low polyreactivity

QVQLVESGGGLVQAGGSLRLSCAASGYIFTPYAMGWYRQAPGKERELVAAITGSGSSTYYADSVKGRFTISRDNAKNTVYLQMNSLKPEDTAVYYCAADSYGFYGYYYYELEYWGQGTQVTVSS
polyreactivity (PSR sort gate): low polyreactivity

QVQLVESGGGLVQAGGSLRLSCAASGYIFTRNAMGWYRQAPGKERELVATISSRGGRTYYADSVKGRFTISRDNAKNTVYLQMNSLKPEDTAVYYCAATPWYRTRTYDYWGQGTQVTVSS
polyreactivity (PSR sort gate): high polyreactivity

QVQLVESGGGLVQAGGSLRLSCAASGYIFVHYVMGWYRQAPGKERELVAAISSSGDRTYYADSVKGRFTISRDNAKNTVYLQMNSMKPEDTAVYYCAARYSDTSTNRYYYWGQGTQVTVSS
polyreactivity (PSR sort gate): high polyreactivity

QVQLVESGGGLVQAGGSLRLSCAASGYIFVRNAMGWYRQAPGKERELVAAISGSGGSTYYADSVKGRFTISRDNAKNTVYLQMNSLKPEDTAVYYCAADYATVTWRGIAYDYWGQGTQVTVSS
polyreactivity (PSR sort gate): low polyreactivity

QVQLVESGGGLVQAGGSLRLSCAASGYIFYDNAMGWYRQAPGKDREFVSTYYADSVKGRFTISRDNAKNTVYLQMNSLKPEDTAVYYCAAVYSHEGYCWGQGTQVTVSS
polyreactivity (PSR sort gate): low polyreactivity

QVQLVESGGGLVQAGGSLRLSCAASGYIFYENAMGWYRQAPGKERELVAAIRFTGGSTYYADSVKGRFTISRDNAKNTVYLQMNSLKPEDTAVYYCSKSYPDTQRYQYPRGWELDYWGQGTQVTVSS
polyreactivity (PSR sort gate): low polyreactivity

QVQLVESGGGLVQAGGSLRLSCAASGYIFYEYAMGWYRQAPGKERELVAAISRRGGRTYYADSVKGRFTISRDNAKNTVYLQMKSLKPEDTAVYYCATRVIYGHSVGYWGQCTQVTVSS
polyreactivity (PSR sort gate): high polyreactivity

QVQLVESGGGLVQAGGSLRLSCAASGYIFYFNAMAWYRQAPGKEMELVAVISDRDDSTYYADSVKGRFTISRDNAKNTVYLHMNSLKPEDTAVYYCAADGDTYYNYYHWGQGTQVTVSS
polyreactivity (PSR sort gate): low polyreactivity

QVQLVESGGGLVQAGGSLRLSCAASGYIFYRNAMGWYRQAPVKEREFVAAISSSGVSTYYADSVKGRFTISRDNAKNTVYLQMNSLKPEDTAVYYCAASYLTWKRRYDYWGQGTQVTVSS
polyreactivity (PSR sort gate): high polyreactivity
